In patent publication US20100129369A1 (Eli Lilly, published 2010):
Blank lines part the entries; values can stand above or below the binder they belong to.

Legend:
[1] = target: T1, human c-Met (human, UniProt P08581 25-1390); experiment: cell-based or functional assay
T1 sequence (P08581 25-1390): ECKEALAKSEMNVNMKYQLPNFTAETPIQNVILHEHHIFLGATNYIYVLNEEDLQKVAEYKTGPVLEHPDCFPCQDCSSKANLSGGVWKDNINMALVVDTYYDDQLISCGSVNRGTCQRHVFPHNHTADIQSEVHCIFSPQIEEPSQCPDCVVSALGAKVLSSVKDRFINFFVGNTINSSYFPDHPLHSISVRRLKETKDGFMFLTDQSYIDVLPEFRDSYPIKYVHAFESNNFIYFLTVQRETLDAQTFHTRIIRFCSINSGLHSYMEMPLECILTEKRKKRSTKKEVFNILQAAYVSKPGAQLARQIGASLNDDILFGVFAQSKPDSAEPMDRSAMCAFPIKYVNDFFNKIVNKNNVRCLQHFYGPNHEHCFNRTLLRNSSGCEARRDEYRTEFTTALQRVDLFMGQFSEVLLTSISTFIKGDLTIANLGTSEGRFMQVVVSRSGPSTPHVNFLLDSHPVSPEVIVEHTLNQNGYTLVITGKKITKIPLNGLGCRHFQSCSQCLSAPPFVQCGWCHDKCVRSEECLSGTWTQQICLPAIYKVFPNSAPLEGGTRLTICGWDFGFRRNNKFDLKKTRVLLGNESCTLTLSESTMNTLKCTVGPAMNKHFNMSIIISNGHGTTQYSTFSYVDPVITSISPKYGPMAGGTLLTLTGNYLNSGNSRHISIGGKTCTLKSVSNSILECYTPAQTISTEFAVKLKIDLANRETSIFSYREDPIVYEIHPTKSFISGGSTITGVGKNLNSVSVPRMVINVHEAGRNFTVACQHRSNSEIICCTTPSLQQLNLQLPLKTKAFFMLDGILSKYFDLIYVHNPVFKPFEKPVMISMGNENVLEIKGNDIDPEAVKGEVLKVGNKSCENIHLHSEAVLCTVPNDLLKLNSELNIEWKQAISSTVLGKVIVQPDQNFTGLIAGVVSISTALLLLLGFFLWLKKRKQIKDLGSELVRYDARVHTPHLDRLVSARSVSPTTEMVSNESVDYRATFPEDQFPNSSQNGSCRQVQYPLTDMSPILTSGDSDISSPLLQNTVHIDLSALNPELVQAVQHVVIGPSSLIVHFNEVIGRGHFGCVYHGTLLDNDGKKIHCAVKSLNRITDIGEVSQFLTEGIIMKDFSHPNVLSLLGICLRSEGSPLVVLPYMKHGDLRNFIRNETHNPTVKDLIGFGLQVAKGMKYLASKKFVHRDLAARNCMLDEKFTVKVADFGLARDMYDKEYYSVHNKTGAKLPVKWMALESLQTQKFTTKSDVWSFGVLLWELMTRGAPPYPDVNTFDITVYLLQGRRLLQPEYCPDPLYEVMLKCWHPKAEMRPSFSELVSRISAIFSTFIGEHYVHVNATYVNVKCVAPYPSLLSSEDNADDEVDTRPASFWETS

[2] = target: T1, human c-Met; experiment: cell-based or functional assay; remark: listed apart in the source
[3] = target: T1, human c-Met; experiment: cell-based or functional assay; remark: listed apart in the source
[4] = target: T1, human c-Met; experiment: cell-based or functional assay; remark: listed apart in the source
[5] = target: T2, human c-Met ECD-Fc-Flis (human); experiment: HGF-blocking ELISA: HGF signal on coated c-Met ECD-Fc-Flis; Ab 122.07 ng/mL
T2 construct: c-Met ECD fused to Fc with flag- and His-tag at the C-terminus; also called human c-Met extracellular domain (ECD)-Fc-Flis fusion; human c-Met-Flis-Fc ECD
T2 sequence (chain, as listed by the source): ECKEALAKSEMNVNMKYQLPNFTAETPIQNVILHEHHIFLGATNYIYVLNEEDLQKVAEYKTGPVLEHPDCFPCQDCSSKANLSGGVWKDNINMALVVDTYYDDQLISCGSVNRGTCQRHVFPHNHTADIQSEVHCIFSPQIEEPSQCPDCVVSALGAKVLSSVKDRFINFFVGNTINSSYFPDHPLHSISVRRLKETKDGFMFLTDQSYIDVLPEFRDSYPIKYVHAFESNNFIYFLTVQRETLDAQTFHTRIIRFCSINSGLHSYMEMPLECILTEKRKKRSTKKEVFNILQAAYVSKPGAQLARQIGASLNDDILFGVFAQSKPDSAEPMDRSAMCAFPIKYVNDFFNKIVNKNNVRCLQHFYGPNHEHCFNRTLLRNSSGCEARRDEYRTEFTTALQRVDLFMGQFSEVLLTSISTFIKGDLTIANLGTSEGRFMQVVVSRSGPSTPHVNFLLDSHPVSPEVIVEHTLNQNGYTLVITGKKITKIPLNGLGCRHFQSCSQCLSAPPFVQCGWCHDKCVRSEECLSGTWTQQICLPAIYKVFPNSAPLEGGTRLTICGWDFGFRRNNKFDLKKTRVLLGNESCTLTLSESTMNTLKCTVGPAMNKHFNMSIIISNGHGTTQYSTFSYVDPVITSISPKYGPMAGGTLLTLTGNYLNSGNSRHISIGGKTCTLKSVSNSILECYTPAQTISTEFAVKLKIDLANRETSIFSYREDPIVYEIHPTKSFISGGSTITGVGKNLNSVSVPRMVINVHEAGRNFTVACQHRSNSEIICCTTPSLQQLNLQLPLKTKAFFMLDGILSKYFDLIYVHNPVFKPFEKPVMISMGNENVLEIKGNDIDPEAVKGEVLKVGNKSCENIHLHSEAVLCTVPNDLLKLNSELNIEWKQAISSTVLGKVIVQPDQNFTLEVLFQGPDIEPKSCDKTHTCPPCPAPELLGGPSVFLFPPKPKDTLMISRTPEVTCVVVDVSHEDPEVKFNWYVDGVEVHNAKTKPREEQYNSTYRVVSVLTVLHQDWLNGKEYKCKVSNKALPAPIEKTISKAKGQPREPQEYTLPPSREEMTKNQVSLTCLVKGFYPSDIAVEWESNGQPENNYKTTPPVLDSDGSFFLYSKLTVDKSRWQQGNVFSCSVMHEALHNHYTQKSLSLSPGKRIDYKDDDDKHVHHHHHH
Protocol: (§1) Wells of 96-well EIA/RIA high binding plates (Costar, #2592) are coated with 100 μL of human c-Met ECD-Fc-Flis (SEQ ID NO:72) (2 μg/mL) in Dulbecco's phosphate buffered saline (DPBS) overnight at room temperature; washed four times with wash buffer (Tris-buffered saline, pH 8.0, with 0.05% (v/v) polysorbate 20 (TWEEN®-20) (TBS-T) (BioFX Labs, # WSHW-1000-01) in a plate washer; blocked by adding 300 μL of blocking buffer (TBS-T plus 1% (w/v) bovine serum albumin (BSA) (Jackson Immuno, #001-000-162); and incubating for 60 min. at 37° C. Blocking buffer is then removed from the wells and 50 μL of antibodies in blocking buffer at final concentrations as indicated in Table 7 are added into each well, respectively. […] The plates with c-Met antibodies are incubated for 90 min. at 37° C. […] The wells are then washed four times with TBS-T in a plate washer. […] The plates are incubated for 90 min. at room temperature. The wells are again washed four times with TBS-T in a plate washer. 100 μL of a 1:200 dilution of streptavidin-horseradish peroxidase (HRP) (R&D Systems, DY998) in blocking buffer are added to each well. The plates are incubated for 30 min. at room temperature. The wells are washed four times with TBS-T in a plate washer. 100 μL/well of substrate solution (BioFx, #TMBW-1000-01) are then added, and the plates are incubated for 10 min. at room temperature. To stop the reaction, 100 μL/well of stop solution (BioFx, # LSTP-1000-01) are added. The samples are read at a wavelength of 450-570 nm on a microplate reader (Spectra, MAX 190) and no background is subtracted.

[6] = target: T3, human c-Met (human, UniProt P08581 25-1390); experiment: cell-based or functional assay; remark: listed apart in the source
T3 sequence (P08581 25-1390): as the sequence (P08581 25-1390) above

[7] = target: T2, human c-Met ECD-Fc-Flis; experiment: HGF-blocking ELISA: HGF signal on coated c-Met ECD-Fc-Flis; Ab 1.91 ng/mL
Protocol: as §1

[8] = target: T2, human c-Met ECD-Fc-Flis; experiment: HGF-blocking ELISA: HGF signal on coated c-Met ECD-Fc-Flis; Ab 488.28 ng/mL
Protocol: as §1

[9] = target: T2, human c-Met ECD-Fc-Flis; experiment: HGF-blocking ELISA: HGF signal on coated c-Met ECD-Fc-Flis; Ab 7.63 ng/mL
Protocol: as §1

[10] = target: T3, human c-Met; experiment: cell-based or functional assay; remark: listed apart in the source
[11] = target: T2, human c-Met ECD-Fc-Flis; experiment: HGF-blocking ELISA: HGF signal on coated c-Met ECD-Fc-Flis; Ab 31250.00 ng/mL
Protocol: as §1

[12] = target: T2, human c-Met ECD-Fc-Flis; experiment: HGF-blocking ELISA: HGF signal on coated c-Met ECD-Fc-Flis; Ab 1953.13 ng/mL
Protocol: as §1

[13] = target: T3, human c-Met; experiment: cell-based or functional assay; remark: listed apart in the source
[14] = target: T2, human c-Met ECD-Fc-Flis; experiment: HGF-blocking ELISA: HGF signal on coated c-Met ECD-Fc-Flis; Ab 30.52 ng/mL
Protocol: as §1

[15] = target: T2, human c-Met ECD-Fc-Flis; experiment: HGF-blocking ELISA: HGF signal on coated c-Met ECD-Fc-Flis; Ab 0.00 ng/mL (HGF only)
Protocol: as §1

[16] = target: T2, human c-Met ECD-Fc-Flis; experiment: HGF-blocking ELISA: HGF signal on coated c-Met ECD-Fc-Flis; Ab 0.48 ng/mL
Protocol: as §1

[17] = target: T2, human c-Met ECD-Fc-Flis; experiment: HGF-blocking ELISA: HGF signal on coated c-Met ECD-Fc-Flis; Ab 125000.00 ng/mL
Protocol: as §1

[18] = target: T2, human c-Met ECD-Fc-Flis; experiment: HGF-blocking ELISA: HGF signal on coated c-Met ECD-Fc-Flis; Ab 7812.50 ng/mL
Protocol: as §1

3H-Thymidine Incorporation in Caki-1 Cells in the Absence of HGF (AVG CPM), antibody dose 0.1 ng/mL [1]: 15300 CPM
3H-Thymidine Incorporation in Caki-1 Cells in the Absence of HGF (AVG CPM), antibody dose 0.4 ng/mL [1]: 14400 CPM
3H-Thymidine Incorporation in Caki-1 Cells in the Absence of HGF (AVG CPM), antibody dose 2.6 ng/mL [1]: 14100 CPM
3H-Thymidine Incorporation in Caki-1 Cells in the Absence of HGF (AVG CPM), antibody dose 15.4 ng/mL [1]: 13500 CPM
3H-Thymidine Incorporation in Caki-1 Cells in the Absence of HGF (AVG CPM), antibody dose 92.6 ng/mL [1]: 13700 CPM
3H-Thymidine Incorporation in Caki-1 Cells in the Absence of HGF (AVG CPM), antibody dose 555.6 ng/mL [1]: 14000 CPM
3H-Thymidine Incorporation in Caki-1 Cells in the Absence of HGF (AVG CPM), antibody dose 3333.3 ng/mL [1]: 15700 CPM
3H-Thymidine Incorporation in Caki-1 Cells in the Absence of HGF (AVG CPM), antibody dose 20000.0 ng/mL [1]: 15900 CPM
Percent of DU145 Cells in Colonies (scatter assay), antibody 20 ug/mL [2]: 25.6%
Staurosporine-Induced Apoptosis in Caki-1 Cells, Average A450 nm, antibody dose 3 ng/mL [3]: 1.02 A450 nm
Staurosporine-Induced Apoptosis in Caki-1 Cells, Average A450 nm, antibody dose 30 ng/mL [3]: 0.91 A450 nm
Staurosporine-Induced Apoptosis in Caki-1 Cells, Average A450 nm, antibody dose 300 ng/mL [3]: 0.81 A450 nm
Staurosporine-Induced Apoptosis in Caki-1 Cells, Average A450 nm, antibody dose 3000 ng/mL [3]: 0.91 A450 nm
Staurosporine-Induced Apoptosis in Caki-1 Cells, Average A450 nm, antibody dose 30000 ng/mL [3]: 0.87 A450 nm
3H-Thymidine Incorporation in Primary Human Hepatocytes in the Absence of HGF (average), dose 0.0032 ug/mL [4]: 611
3H-Thymidine Incorporation in Primary Human Hepatocytes in the Absence of HGF (average), dose 0.016 ug/mL [4]: 715
3H-Thymidine Incorporation in Primary Human Hepatocytes in the Absence of HGF (average), dose 0.08 ug/mL [4]: 1120
3H-Thymidine Incorporation in Primary Human Hepatocytes in the Absence of HGF (average), dose 0.4 ug/mL [4]: 1230
3H-Thymidine Incorporation in Primary Human Hepatocytes in the Absence of HGF (average), dose 2 ug/mL [4]: 1430
3H-Thymidine Incorporation in Primary Human Hepatocytes in the Absence of HGF (average), dose 10 ug/mL [4]: 1700
B1: D11-8B8 (antibody, human IgG2, kappa, V domains shown)
VH: QVQLVQSGAEVKKPGSSVKVSCKASGYTFTSRYIHWVRQAPGQGLEWMGWIYPVTGDTYYIEKFKGRVTITADKSTSTAYMELSSLRSEDTAVYYCARGYGAFFYWGQGTLVTVSS
VL: EIVLTQSPGTLSLSPGERATLSCSVSSSISSTNLHWYQQKPGQAPRLLIYGTSYLASGIPDRFSGSGSGTDFTLTISRLEPEDFAVYYCQQWSSYPYSFGQGTKLEIKR

AVG A450 nm [5]: 1.3 A450 nm
AVG CPM, 3H-thymidine incorporation in MKN45 cells, Ab 0.0 ng/mL (no antibody) [6]: 51500 CPM
AVG CPM, 3H-thymidine incorporation in MKN45 cells, Ab 0.1 ng/mL [6]: 45700 CPM
AVG CPM, 3H-thymidine incorporation in MKN45 cells, Ab 0.4 ng/mL [6]: 47500 CPM
AVG CPM, 3H-thymidine incorporation in MKN45 cells, Ab 2.6 ng/mL [6]: 53500 CPM
AVG CPM, 3H-thymidine incorporation in MKN45 cells, Ab 15.4 ng/mL [6]: 22500 CPM
AVG CPM, 3H-thymidine incorporation in MKN45 cells, Ab 92.6 ng/mL [6]: 12400 CPM
AVG CPM, 3H-thymidine incorporation in MKN45 cells, Ab 555.6 ng/mL [6]: 13500 CPM
AVG CPM, 3H-thymidine incorporation in MKN45 cells, Ab 3333.3 ng/mL [6]: 13000 CPM
AVG CPM, 3H-thymidine incorporation in MKN45 cells, Ab 20000.0 ng/mL [6]: 11700 CPM
AVG A450 nm [7]: 2.18 A450 nm
AVG A450 nm [8]: 0.7 A450 nm
AVG A450 nm [9]: 2.2 A450 nm
% inhibition of HGF stimulated phospho-Met (ELISA, HCT116 cells), Ab 0.0032 µg/mL [10]: -10.7%
% inhibition of HGF stimulated phospho-Met (ELISA, HCT116 cells), Ab 0.016 µg/mL [10]: -2.89%
% inhibition of HGF stimulated phospho-Met (ELISA, HCT116 cells), Ab 0.08 µg/mL [10]: 9.77%
% inhibition of HGF stimulated phospho-Met (ELISA, HCT116 cells), Ab 0.4 µg/mL [10]: 45.1%
% inhibition of HGF stimulated phospho-Met (ELISA, HCT116 cells), Ab 2 µg/mL [10]: 59%
% inhibition of HGF stimulated phospho-Met (ELISA, HCT116 cells), Ab 10 µg/mL [10]: 65.4%
AVG A450 nm [11]: 0.56 A450 nm
AVG A450 nm [12]: 0.6 A450 nm
Mean Fluorescence (c-Met left on the surface of MKN45 cells, FACS), Ab 5.00 ug/mL [13]: 56.2
AVG A450 nm [14]: 2.08 A450 nm
AVG A450 nm [15]: 2.61 A450 nm
AVG A450 nm [16]: 2.05 A450 nm
AVG A450 nm [17]: 0.38 A450 nm
AVG A450 nm [18]: 0.57 A450 nm
B2: C8-co-16 (antibody, human IgG2, kappa, V domains shown)
VH: QVQLVQSGAEVKKPGASVKVSCKASGYTFTDYYMHWVRQAPGQGLEWMGRVNPYRGSTTYNQKFEGRVTMTTDTSTSTAYMELRSLRSDDTAVYYCARANILDYWGQGTTVTVSS
VL: DIQMTQSPSSLSASVGDRVTITCSVSSSVRSIYLHWYQQKPGKAPKLLIYSTSNLASGVPSRFSGSGSGTDFTLTISSLQPEDFATYYCQVYRGYPLTFGGGTKVEIKR
notes: Named IgG4 kappa; also called C8-co-16 IgG4

3H-Thymidine Incorporation in Caki-1 Cells in the Absence of HGF (AVG CPM), antibody dose 0.1 ng/mL [1]: 15600 CPM
3H-Thymidine Incorporation in Caki-1 Cells in the Absence of HGF (AVG CPM), antibody dose 0.4 ng/mL [1]: 14100 CPM
3H-Thymidine Incorporation in Caki-1 Cells in the Absence of HGF (AVG CPM), antibody dose 2.6 ng/mL [1]: 13700 CPM
3H-Thymidine Incorporation in Caki-1 Cells in the Absence of HGF (AVG CPM), antibody dose 15.4 ng/mL [1]: 12100 CPM
3H-Thymidine Incorporation in Caki-1 Cells in the Absence of HGF (AVG CPM), antibody dose 92.6 ng/mL [1]: 11600 CPM
3H-Thymidine Incorporation in Caki-1 Cells in the Absence of HGF (AVG CPM), antibody dose 555.6 ng/mL [1]: 11400 CPM
3H-Thymidine Incorporation in Caki-1 Cells in the Absence of HGF (AVG CPM), antibody dose 3333.3 ng/mL [1]: 13800 CPM
3H-Thymidine Incorporation in Caki-1 Cells in the Absence of HGF (AVG CPM), antibody dose 20000.0 ng/mL [1]: 13100 CPM
Percent of DU145 Cells in Colonies (scatter assay), antibody 20 ug/mL [2]: 23.7%
3H-Thymidine Incorporation in Primary Human Hepatocytes in the Absence of HGF (average), dose 0.0032 ug/mL [4]: 829
3H-Thymidine Incorporation in Primary Human Hepatocytes in the Absence of HGF (average), dose 0.016 ug/mL [4]: 716
3H-Thymidine Incorporation in Primary Human Hepatocytes in the Absence of HGF (average), dose 0.08 ug/mL [4]: 767
3H-Thymidine Incorporation in Primary Human Hepatocytes in the Absence of HGF (average), dose 0.4 ug/mL [4]: 670
3H-Thymidine Incorporation in Primary Human Hepatocytes in the Absence of HGF (average), dose 2 ug/mL [4]: 822
3H-Thymidine Incorporation in Primary Human Hepatocytes in the Absence of HGF (average), dose 10 ug/mL [4]: 952
B3: C8-co-16 (antibody, human IgG2, kappa, V domains shown)
VH: B2 VH
VL: B2 VL
